Changes are numbered by the printed parent chain.

The labels stand for the following.
T1: consensus S-HBs protein of HBV genotype I (ConsHBAg_I) (hepatitis B virus genotype I (consensus), UniProt P31873 175-400)
T1 construct: also called genotype I S-HBs
T1 chain: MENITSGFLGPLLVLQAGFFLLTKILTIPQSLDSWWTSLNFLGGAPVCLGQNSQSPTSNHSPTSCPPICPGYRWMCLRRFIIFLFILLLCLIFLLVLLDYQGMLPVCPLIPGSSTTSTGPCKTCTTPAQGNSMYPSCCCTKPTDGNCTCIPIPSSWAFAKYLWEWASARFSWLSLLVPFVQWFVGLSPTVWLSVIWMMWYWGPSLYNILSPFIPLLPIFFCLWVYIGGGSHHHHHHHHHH

T2: consensus S-HBs protein of HBV genotype E (ConsHBAg_E) (hepatitis B virus genotype E (consensus), UniProt Q69603 174-399)
T2 construct: also called genotype E S-HBs
T2 chain: T1 chain with N3S, K122R, P127L, N131T, Y134F, T140S, T143S, A159G, Y161F, V184A

B1: Bc1.128 (antibody)
heavy: not shown
light: DIQLTQSPSSLSASVGDRVTITCRASQGIRSDLGWYQQKPGKAPKRLIYGASNLQRGVPSRFSGSGSGTEFTLTISSLQPEDFASYYCLQHNSFPWTFGQGTKVEIKRTVAAPSVFIFPPSDEQLKSGTASVVCLLNNFYPREAKVQWKVDNALQSGNSQESVTEQDSKDSTYSLSSTLTLSKADYEKHKVYACEVTHQGLSSPVTKSFNRGEC
B2: Bc3.106 (antibody)
heavy: not shown
light: B1 light with L4M, S31N, G50A, N53S, R56S, S85T, F94Y, W96R
B3: Bc1.187 (antibody, human IgG1, kappa)
heavy: not shown
light: DIQMTQSPSSLSAYVGDRVTITCRASQRISTYLNWYHQRPGKSPSLLIYGASSLQSGVPSRFSASASGTDFTLTISSLRPEDLGTYYCQQTYTLPPNSGGGTKVEIKRTVAAPSVFIFPPSDEQLKSGTASVVCLLNNFYPREAKVQWKVDNALQSGNSQESVTEQDSKDSTYSLSSTLTLSKADYEKHKVYACEVTHQGLSSPVTKSFNRGEC
notes: also called Bcl.187; Bc1.187_huIgG1_wt
B4: Bc1.180 (antibody)
heavy: not shown
light: EIVLTQSPGTLSLSPGNRATLSCRASQSVTSNYFAWYQHKPGQAPRVLIYGASSRATGIPDRFSGSGSGTDFTLTISRLEPEDFAVYYCQQFGSLPYTFGQGTKLEIKRTVAAPSVFIFPPSDEQLKSGTASVVCLLNNFYPREAKVQWKVDNALQSGNSQESVTEQDSKDSTYSLSSTLTLSKADYEKHKVYACEVTHQGLSSPVTKSFNRGEC

T7 sequence (Q05496 175-400, tags left off): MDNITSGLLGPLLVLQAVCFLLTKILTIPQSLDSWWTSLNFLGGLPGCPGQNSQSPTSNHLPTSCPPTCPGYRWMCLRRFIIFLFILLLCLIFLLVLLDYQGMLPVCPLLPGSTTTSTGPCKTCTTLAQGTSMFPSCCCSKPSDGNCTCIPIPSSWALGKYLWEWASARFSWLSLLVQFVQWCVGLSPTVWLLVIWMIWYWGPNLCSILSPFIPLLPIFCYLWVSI
T10 sequence (Q8JMZ6 175-400, tags left off): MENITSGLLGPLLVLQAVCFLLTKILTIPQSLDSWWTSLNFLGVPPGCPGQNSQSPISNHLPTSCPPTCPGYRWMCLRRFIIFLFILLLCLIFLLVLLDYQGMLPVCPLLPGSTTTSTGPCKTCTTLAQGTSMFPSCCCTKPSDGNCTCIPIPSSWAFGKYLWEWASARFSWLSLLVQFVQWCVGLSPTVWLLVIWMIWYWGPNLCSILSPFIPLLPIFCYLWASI

One experiment addresses HBV genotype D viruses (produced in HepG2.2.15 cell culture supernatant) (hepatitis B virus genotype D). Kind of experiment: cell-based or functional assay.
B1: the “HBV-gD in vitro neutralization (IC50 µg/ml)” value was 0.000544 µg/mL.
The same measure, in the same setting: the result for B2 reads 1.39e-07 µg/mL; that for B3, 5e-08 µg/mL.
For the molecule B4, the “HBV-gD in vitro neutralization (IC50 µg/ml)” value is 5e-08 µg/mL.

The next experiment deals with T3, Adw S-HBs protein (adw HBsAg particles, GenHevac (Adw)) (hepatitis B virus, adw subtype).
T3 construct: also called GenHevac-B
As to the kind of experiment: ELISA on recombinant HBV vaccine particles.
Turning to B1, the half-maximal effective concentration (EC50) was determined as 7.2 ng/mL.
On the same count and under the same terms, the result for B2 reads 42.1 ng/mL; that for B3, 4.9 ng/mL.
On the same count and under the same terms, to B4 belongs 65.3 ng/mL.

For the next experiment, the target named is T4, Ayw S-HBs protein (ayw HBsAg particles, Engerix-B (Ayw)) (hepatitis B virus, ayw subtype). As to the kind of experiment: ELISA on recombinant HBV vaccine particles.
On to B1, for which the concentration giving a half-maximal response (EC50) amounted to 5.7 ng/mL.
The same measure, in the same setting: to B2 belongs 19.3 ng/mL; to B3, 3.5 ng/mL.
Turning to B4, the EC50 was determined as 310 ng/mL.

The next experiment has as its target T3, Adw S-HBs protein (adw HBsAg particles, …). As to the kind of experiment: ELISA, AUC of binding curve. The arrangement: unit not given beside the values.
For B1, the “AUC (serotype binding)” value was 35.
The same measure, in the same setting: to B2 belongs 36.
The same measure, in the same setting: to B3 belongs 36.
On to B4, for which the “AUC (serotype binding)” value stood at 30.

The next experiment has as its target T4, Ayw S-HBs protein (ayw HBsAg particles, …). As to the kind of experiment: ELISA, AUC of binding curve. Details: unit not given beside the values.
On to B1, for which the “AUC (serotype binding)” value was 37.
Still for that read-out and setting: to B2 belongs 37; to B3, 35.
For the molecule B4, the “AUC (serotype binding)” value was found to be 23.

The target in the next experiment is T5, consensus S-HBs protein of HBV genotype B (ConsHBAg_B) (hepatitis B virus genotype B (consensus), UniProt Q9PWW3 175-400).
T5 construct: also called genotype B S-HBs
Kind of experiment: flow cytometry, S-HBs-transfected 293-F cells.
Regarding B1, the “% of bound S-HBs-expressing cells” value came to 67%.
The same measure, in the same setting: the result for B2 reads 55%; that for B3, 70%; that for B4, 45%.

For the next experiment, the target named is genotype D S-HBs mutant protein M133T (hepatitis B virus genotype D, UniProt P03138 164-389). As to the kind of experiment: flow cytometry, S-HBs-transfected 293-F cells.
Take B1: the “% of bound S-HBs-expressing cells” value turned out to be 48%.
The same measure, in the same setting: the result for B2 reads 66%; that for B3, 52%.
Still for that read-out and setting: to B4 belongs 25%.

A further experiment deals with T1, consensus S-HBs protein of HBV genotype …. As to the kind of experiment: flow cytometry, S-HBs-transfected 293-F cells.
Turning to B1, the “% of bound S-HBs-expressing cells” value turned out to be 47%.
Still for that read-out and setting: the result for B2 reads 53%.
On the same count and under the same terms, the result for B3 reads 54%; that for B4, 22%.

The target in a further experiment is genotype D S-HBs mutant protein Y134V (hepatitis B virus genotype D, UniProt P03138 164-389). As to the kind of experiment: flow cytometry, S-HBs-transfected 293-F cells.
On to B1, for which the “% of bound S-HBs-expressing cells” value is 47%.
Still for that read-out and setting: the result for B2 reads 69%; that for B3, 57%; that for B4, 25%.

The target of the next experiment is T6, consensus S-HBs protein of HBV genotype A (ConsHBAg_A) (hepatitis B virus genotype A (consensus), UniProt P03141 175-400).
T6 construct: also called genotype A S-HBs
As to the kind of experiment: flow cytometry, S-HBs-transfected 293-F cells.
For the molecule B1, the “% of bound S-HBs-expressing cells” value was determined as 64%.
As for B2, the “% of bound S-HBs-expressing cells” value stood at 70%.
As to B3, the “% of bound S-HBs-expressing cells” value stood at 73%.
The same measure, in the same setting: to B4 belongs 57%.

The next experiment addresses genotype D S-HBs mutant protein T126A (hepatitis B virus genotype D, UniProt P03138 164-389). As to the kind of experiment: flow cytometry, S-HBs-transfected 293-F cells.
Turning to B1, the “% of bound S-HBs-expressing cells” value amounted to 53%.
Still for that read-out and setting: the result for B2 reads 71%.
For the molecule B3, the “% of bound S-HBs-expressing cells” value came out at 60%.
In the case of B4, the “% of bound S-HBs-expressing cells” value stood at 38%.

In a further experiment the target is T2, consensus S-HBs protein of HBV genotype …. As to the kind of experiment: flow cytometry, S-HBs-transfected 293-F cells.
As for B1, the “% of bound S-HBs-expressing cells” value amounted to 65%.
The same measure, in the same setting: the result for B2 reads 59%; that for B3, 66%; that for B4, 46%.

The next experiment has as its target T7, consensus S-HBs protein of HBV genotype F (ConsHBAg_F) (hepatitis B virus genotype F (consensus), UniProt Q05496 175-400).
T7 construct: also called genotype F S-HBs
As to the kind of experiment: flow cytometry, S-HBs-transfected 293-F cells.
For B1, the “% of bound S-HBs-expressing cells” value amounted to 58%.
Still for that read-out and setting: to B2 belongs 55%.
On to B3, for which the “% of bound S-HBs-expressing cells” value came to 58%.
Still for that read-out and setting: to B4 belongs 42%.

The target of another experiment is T8, consensus S-HBs protein of HBV genotype D (ConsHBAg_D) (hepatitis B virus genotype D (consensus), UniProt P03138 164-389).
T8 construct: also called genotype D S-HBs; ConsD S-HBs
As to the kind of experiment: flow cytometry, S-HBs-transfected 293-F cells.
As to B1, the “% of bound S-HBs-expressing cells” value stood at 64%.
Still for that read-out and setting: to B2 belongs 62%; to B3, 66%.
Still for that read-out and setting: to B4 belongs 47%.

Another experiment concerns the target T9, consensus S-HBs protein of HBV genotype C (ConsHBAg_C) (hepatitis B virus genotype C (consensus), UniProt P03140 175-400).
T9 construct: also called genotype C S-HBs
As to the kind of experiment: flow cytometry, S-HBs-transfected 293-F cells.
On to B1, for which the “% of bound S-HBs-expressing cells” value is 67%.
The same measure, in the same setting: the result for B2 reads 83%; that for B3, 67%.
For the molecule B4, the “% of bound S-HBs-expressing cells” value came to 43%.

A further experiment has as its target genotype D S-HBs mutant protein N146S (hepatitis B virus genotype D, UniProt P03138 164-389). Kind of experiment: flow cytometry, S-HBs-transfected 293-F cells.
On to B1, for which the “% of bound S-HBs-expressing cells” value turned out to be 46%.
On the same count and under the same terms, the result for B2 reads 63%; that for B3, 48%; that for B4, 27%.

A further experiment concerns the target T10, consensus S-HBs protein of HBV genotype H (ConsHBAg_H) (hepatitis B virus genotype H (consensus), UniProt Q8JMZ6 175-400).
T10 construct: also called genotype H S-HBs
As to the kind of experiment: flow cytometry, S-HBs-transfected 293-F cells.
For B1, the “% of bound S-HBs-expressing cells” value was determined as 59%.
The same measure, in the same setting: the result for B2 reads 59%; that for B3, 59%; that for B4, 55%.

For another experiment, the target named is genotype D S-HBs mutant protein G145R (hepatitis B virus genotype D, UniProt P03138 164-389). As to the kind of experiment: flow cytometry, S-HBs-transfected 293-F cells.
In the case of B1, the “% of bound S-HBs-expressing cells” value worked out at 0%.
Still for that read-out and setting: to B2 belongs 67%; to B3, 17%; to B4, 14%.

Another experiment addresses T11, consensus S-HBs protein of HBV genotype G (ConsHBAg_G) (hepatitis B virus genotype G (consensus), UniProt Q9IBI3 174-399).
T11 construct: also called genotype G S-HBs
Kind of experiment: flow cytometry, S-HBs-transfected 293-F cells.
As for B1, the “% of bound S-HBs-expressing cells” value worked out at 58%.
Same read-out and setting: to B2 belongs 65%; to B3, 64%; to B4, 39%.

These data come from patent publication US20230340081A1 (Hoffmann-La Roche, published 2023).
